# Source: patent US20130251724A1 (GlaxoSmithKline, published 2013)
# Several values for one entry are separate records, joined by “and”; a condition that tells them apart may be missing. Equal values may be shown once. Read-outs that look alike come from different tables or passages of the source.
# T1: Cynomolgus OSM (cynomolgus, UniProt A0A2K5VPC6 26-221)
# T1 construct: also called Cyno OSM; cynomolgus macaque OSM
# T1 sequence: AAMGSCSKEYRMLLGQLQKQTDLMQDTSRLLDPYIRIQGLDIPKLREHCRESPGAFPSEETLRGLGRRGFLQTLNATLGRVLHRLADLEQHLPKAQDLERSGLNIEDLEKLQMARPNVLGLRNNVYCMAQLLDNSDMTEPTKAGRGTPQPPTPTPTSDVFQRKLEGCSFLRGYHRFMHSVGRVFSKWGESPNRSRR
# T2: Human OSM (human, UniProt P13725 26-221)
# T2 construct: Recombinant human OSM; also called hOSM; human Oncostatin M
# T2 sequence: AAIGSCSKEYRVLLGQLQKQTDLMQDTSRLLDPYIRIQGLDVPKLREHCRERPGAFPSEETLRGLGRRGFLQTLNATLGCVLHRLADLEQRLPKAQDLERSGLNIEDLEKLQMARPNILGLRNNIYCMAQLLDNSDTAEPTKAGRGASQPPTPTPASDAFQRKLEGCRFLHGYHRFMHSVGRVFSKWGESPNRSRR
# T3: Rhesus OSM (rhesus macaque, UniProt F7GF43 26-221)
# T3 construct: also called rhesus macaque OSM
# T3 sequence: T1 sequence
# T4: Endogenous human OSM (neutrophil-derived) (human, UniProt P13725 26-221, limits assumed)
# T4 construct: Native OSM generated from GM-CSF stimulation of healthy human neutrophils; also called native OSM; endogenous OSM
# T4 sequence: T2 sequence
# B1: Humanised 10G8 H0(IGHV3-23)L1 (antibody, human IgG1, kappa, V domains shown)
# VH: EVQLVESGGGLVQPGGSLRLSCAASGFTFSSYAMSWVRQAPGKGLEWVATISDGGSFTYYLDNVRGRFTISRDNAKNSLYLQMNSLRAEDTAVYYCARDVGHTTFWYFDVWGRGTLVTVSS
# VL: DIVMTQSPDSLAVSLGERATINCRASKSVSAAGYNFMHWYQQKPGQPPKVLIYYASNLESGVPDRFSGSGSGTDFTLTISSLQAEDVAVYYCLHSREFPFTFGGGTKVEIKR
# notes: IgG1 kappa; also called H0(huCDRH1)L1; H0 (CDRH1 IGHV3_23) L1
# How the values were obtained:
# Cynomolgus OSM [1] = biological target: T1, Cynomolgus OSM; test: BIAcore kinetics, transfection supernatant
# Human OSM [2] = biological target: T2, Human OSM; test: BIAcore kinetics, transfection supernatant
# Marmoset OSM [3] = biological target: T5, Marmoset OSM (marmoset); test: Kinexa solution phase affinity
# T5 construct: also called Marm OSM
# Procedure: (§1) Kinexa (Sapidyne Instruments 3200) solution phase affinity was used to determine the overall affinity of anti-OSM antibody H0(huCDRH1)L1 and Humanised 15E10 (an unrelated OSM antibody) to human, cynomolgus macaque, rhesus macaque and marmoset OSM (Table 15). Humanised 15E10 was added for comparison purposes.
# (§2) OSM beads were prepared either by adsorption (polymethylmethacrylate beads-PMMA) or amine coupling (NHS-activated sepharose beads). The range of OSM molecules studied necessitated the generation of beads coated with different concentrations of OSM. For the solution phase portion of the assay, a fixed concentration of antibody was incubated with a broad range of OSM concentrations and allowed to reach equilibrium by incubation at r.t. for at least 2 h before analysis proceeded. The OSM beads were then used to determine the amount of free antibody present in the solution phase samples, by means of the free antibody binding to the OSM bead matrix then detected using an appropriate secondary antibody (either anti-human or anti-mouse depending on the construct being tested) labelled with a fluorescent dye. The binding curves where fitted using the Kinexa Pro analysis software inherent to the machine. Multiple runs using varying starting concentrations of antibody were then compiled and analysed using the n-curve analysis software to give a more accurate determination of affinity.
# Rhesus OSM = biological target: T3, Rhesus OSM; test: Kinexa solution phase affinity
# Procedure: as §1, §2
# Cynomolgus OSM [4] = biological target: T1, Cynomolgus OSM; test: Kinexa solution phase affinity
# Procedure: as §1, §2
# Human OSM [5] = biological target: T2, Human OSM; test: Kinexa solution phase affinity
# Procedure: as §1, §2
# Cynomolgus OSM [6] = biological target: T1, Cynomolgus OSM; test: cell-based or functional assay
# Human OSM [7] = biological target: T2, Human OSM; test: cell-based or functional assay
# Human OSM [8] = biological target: T2, Human OSM; test: cell-based or functional assay; remark: listed apart in the source
# [9] = biological target: T4, Endogenous human OSM …; test: gp130 ELISA with endogenous neutrophil-derived human OSM
# Human OSM [10] = biological target: T2, Human OSM; test: cell-based or functional assay; remark: listed apart in the source
# Human OSM [11] = biological target: T2, Human OSM; test: cell-based or functional assay; remark: listed apart in the source
# Human OSM [12] = biological target: T2, Human OSM; test: BIAcore, purified antibody
# Human OSM [13] = biological target: T2, Human OSM; test: cell-based or functional assay; remark: listed apart in the source
# Human OSM [14] = biological target: T2, Human OSM; test: cell-based or functional assay; remark: listed apart in the source
# Human OSM [15] = biological target: T2, Human OSM; test: cell-based or functional assay; remark: listed apart in the source
# [16] = biological target: T4, Endogenous human OSM …; test: gp130 ELISA with endogenous neutrophil-derived human OSM; remark: listed apart in the source
# Human OSM [17] = biological target: T2, Human OSM; test: cell-based or functional assay; remark: listed apart in the source
# Human OSM [18] = biological target: T2, Human OSM; test: cell-based or functional assay; remark: listed apart in the source
# Cynomolgus OSM [19] = biological target: T1, Cynomolgus OSM; test: BIAcore kinetics, purified antibody
# Human OSM [20] = biological target: T2, Human OSM; test: BIAcore kinetics, purified antibody
# Marmoset OSM [21] = biological target: T5, Marmoset OSM; test: cell-based or functional assay
# Cynomolgus OSM [22] = biological target: T1, Cynomolgus OSM; test: cell-based or functional assay; remark: listed apart in the source
# Human OSM [23] = biological target: T2, Human OSM; test: cell-based or functional assay; remark: listed apart in the source
binder,measurement,setting,value
B1,Kd,Cynomolgus OSM [1],0.31 nM
same,koff,Cynomolgus OSM [1],0.000109 s⁻¹
same,kon,Cynomolgus OSM [1],352000 M⁻¹ s⁻¹
same,Kd,Human OSM [2],0.437 nM
same,koff,Human OSM [2],0.000158 s⁻¹
same,kon,Human OSM [2],361000 M⁻¹ s⁻¹
same,Kd,Marmoset OSM [3],0.021 nM
same,Kd,Rhesus OSM,0.122 nM
same,Kd,Cynomolgus OSM [4],0.053 nM
same,Kd,Human OSM [5],0.038 nM
same,"KB cell neutralisation assay, mean IC50",Cynomolgus OSM [6],0.007 µg/ml and 47 pM
same,"KB cell neutralisation assay, mean IC50",Human OSM [7],0.008 µg/ml and 53 pM
same,IC50 (read off the curve); IL-6 release from IPF human lung fibroblasts stimulated with 3 ng/ml OSM,Human OSM [8],~0.01 mg/L
same,fold increase in potency compared with 15E10h,[9],~12 fold
same,IC50 (read off the curve); IL-6 release from HFLS-RA cells stimulated with 3 ng/ml human OSM,Human OSM [10],~0.1 nM
same,IC50 (read off the curve); MCP-1 release from HFLS-RA cells stimulated with 3 ng/ml human OSM,Human OSM [11],~0.1 nM
same,fold increased affinity compared with 15E10h,Human OSM [12],6.5 fold
same,IC50 (read off the curve); IL-6 release from normal human lung fibroblasts stimulated with 3 ng/ml OSM,Human OSM [13],~0.006 mg/L
same,IC50 (read off the curve); MCP-1 release from normal human lung fibroblasts stimulated with 3 ng/ml OSM,Human OSM [14],~0.01 mg/L
same,IC50 (read off the curve); MCP-1 release from IPF human lung fibroblasts stimulated with 3 ng/ml OSM,Human OSM [15],~0.03 mg/L
same,IC50,[16],0.0062 µg/mL and 0.041 nM
same,IC50 (read off the curve); IL-6 release from HFLS-RA cells stimulated with 0.3 ng/ml human OSM,Human OSM [17],~0.006 nM
same,IC50 (read off the curve); MCP-1 release from HFLS-RA cells stimulated with 0.3 ng/ml human OSM,Human OSM [18],~0.005 nM
same,Kd,Cynomolgus OSM [19],0.199 nM
same,koff,Cynomolgus OSM [19],8.39e-05 s⁻¹
same,kon,Cynomolgus OSM [19],423000 M⁻¹ s⁻¹
same,Kd,Human OSM [20],0.136 nM
same,koff,Human OSM [20],9.65e-05 s⁻¹
same,kon,Human OSM [20],709000 M⁻¹ s⁻¹
same,"KB cell neutralisation assay, mean IC50",Marmoset OSM [21],0.0036 µg/ml and 24 pM
same,"KB cell neutralisation assay, mean IC50",Cynomolgus OSM [22],0.0041 µg/ml and 27 pM
same,"KB cell neutralisation assay, mean IC50",Human OSM [23],0.003 µg/ml and 20 pM
